This note sets out measurements from patent US8703698B2, “Compositions and methods for treating atherosclerosis” (The University of Chicago, priority 2003, dated 2014).

Data set [1] has as its target T1, acyl CoA:cholesterol acyl transferase (Mus musculus, UniProt Q61263).
T1 construct: host or cells: J774 mouse macrophages, cholesterol-loaded
T1 sequence (Q61263 1-540): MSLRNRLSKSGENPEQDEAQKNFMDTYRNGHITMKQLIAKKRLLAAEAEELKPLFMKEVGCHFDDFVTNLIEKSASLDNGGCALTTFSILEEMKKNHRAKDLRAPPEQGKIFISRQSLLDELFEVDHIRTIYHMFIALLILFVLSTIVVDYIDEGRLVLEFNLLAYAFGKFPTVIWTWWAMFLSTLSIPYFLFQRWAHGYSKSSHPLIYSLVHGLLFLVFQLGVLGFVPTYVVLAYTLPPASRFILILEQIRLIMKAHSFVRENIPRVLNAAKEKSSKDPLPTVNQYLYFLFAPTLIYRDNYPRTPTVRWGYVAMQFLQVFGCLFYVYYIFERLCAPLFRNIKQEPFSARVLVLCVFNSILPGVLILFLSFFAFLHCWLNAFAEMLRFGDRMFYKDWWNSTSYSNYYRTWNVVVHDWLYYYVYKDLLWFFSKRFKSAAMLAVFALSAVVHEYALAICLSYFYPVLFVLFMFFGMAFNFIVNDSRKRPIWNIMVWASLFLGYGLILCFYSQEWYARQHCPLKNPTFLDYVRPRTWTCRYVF
Description: Incorporation of [14C]oleate into cholesteryl ester in cholesterol-laden macrophages (ACAT activity). Format: cell-based, murine. The note with it: for relative acyl CoA:cholesterol acyl transferase activity: liposomes containing 0.5 μM synthetic peptide, 6 hour incubation, cholesterol-laden murine cells.

Data set [2] has as its system [3H]-cholesterol-loaded J774 macrophages. Description: In vivo cholesterol efflux to plasma in mice injected with [3H]-cholesterol-loaded J774 macrophages. The note with it: for [3H]-cholesterol efflux as plasma radioactivity (dpm) (FIG. 1): intravenous liposomes containing 0.5 μM peptide, 24 hours after macrophages. As for the experimental part: In these experiments, in vivo cholesterol export was determined in mice injected with J774 macrophages cholesterol-loaded with RBC membranes and [^3H]-cholesterol. Two hundred thousand macrophages in 100:1 PBS were injected into each mouse through the tail vein. At various time points thereafter, approximately 25:1 of blood were collected from the tail vein of each animal into heparinized capillary tubes. The tubes were then centrifuged for 5 minutes in an Adams Autocrit Centrifuge to separate red blood cells from plasma. Cholesterol efflux was determined by measuring the appearance of [^3H]-cholesterol in plasma by scintillation spectrometry. To study whether export of cholesterol from J774 cells to plasma was influenced by non-liposome formulated D-27mer peptide (SEQ ID NO:10), 24 hours after injection of cholesterol-loaded J774 macrophages into mice, the same animals received, by intravenous injection, 30 μg, 60 μg, 150 μg, 225 μg, 300 μg or 600 μg of D-27mer. All these amounts of D-peptides were dissolved in 100:l of phosphate buffered saline and injected through the tail vein of each animal.
Additional in vivo studies have also been conducted wherein mice were first injected intravenously with [^3H]cholesterol-laden macrophages and then injected 24 hours later with liposomes containing 0.5 μM of synthetic peptides corresponding to amino acid residues 1-20, 21-50, 51-80 or 74-103 of murine SAA2.1. Results from this study are depicted in FIG. 1. At time points indicated in the graph of FIG. 1, approximately 25 μl of blood were collected from the tail vein of each animal. The blood samples were centrifuged to separate the red blood cells from the plasma and the [^3H]-cholesterol in plasma was determined by scintillation counting. Results are mean±SEM of four determinations.
To determine cholesterol export in vivo, J774 macrophages were cholesterol-loaded with red blood cell membranes and [^3H]-cholesterol as described above. Cells were washed four times with PBS/BSA and then detached from the culture dishes. Five million cells in 200 μl DMEM were injected into control mice or inflamed mice through the tail vein. At various time points, approximately 25 μl of blood were collected from the tail vein of each animal into heparinized capillary tubes and then centrifuged for 5 minutes in an Adams Autocrit Centrifuge to separate red blood cells from plasma. Cholesterol efflux was determined by measuring the appearance of [^3H]-cholesterol in plasma by scintillation spectrometry.
J774 cells cultured in 6-well plates were enriched with cholesterol by incubating with red blood cell (RBC) membrane fragments (175:g as cholesterol) that had been previously labeled with 0.5:Ci/ml [^3H]-cholesterol at 37° C. for 24 hours in 0.2% bovine serum albumin (BSA). After loading with the labelled RBC membrane for 6 hours, cells were then washed with phosphate-buffered saline/BSA (PBS/BSA) three times followed by an 18 hour equilibration period during which monolayers were exposed to DMEM/BSA. To determine cholesterol export in vivo, J774 macrophages were cholesterol-loaded with RBC membranes and [^3H]-cholesterol as described previously above. Cells were washed four times with PBS/BSA and then detached from the culture dishes. Two hundred thousand cells in 100:l PBS were injected into mice through the tail vein. At various time points thereafter, approximately 25:l of blood were collected from the tail vein of each animal into heparinized capillary tubes. These tubes were then centrifuged for 5 minutes in an Adams Autocrit Centrifuge to separate red blood cells from plasma. Cholesterol efflux was determined by measuring the appearance of [^3H]-cholesterol in plasma by scintillation spectrometry. […]

For “DTIADQEANRHGRSGKDPNYYRPPGLPDKY [SEQ ID NO:4, synthetic peptide, residues 74-103 of murine SAA2.1]”, in data set [1], the “relative acyl CoA:cholesterol acyl transferase activity” value is “no significant effect”. For the same molecule, the “[3H]-cholesterol efflux as plasma radioactivity (dpm) (FIG. 1)” value in data set [2] is “dramatically increased”.
The corresponding values for “GFFSFVHEAFQGAGDMWRAY [SEQ ID NO:1, synthetic peptide, residues 1-20 of murine SAA2.1]” are “two-fold decrease” and “dramatically increased”.

B1: GFFSFVHEAFQGAGDMWRAYTDMKEANWKNSDKYFHARGNYDAAQRGPGGVWAAEKISD GREAFQEFFGRGHEDTIADQEANRHGRSGKDPNYYRPPGLPDKY (protein, listed as Mus musculis)
chain: GFFSFVHEAFQGAGDMWRAYTDMKEANWKNSDKYFHARGNYDAAQRGPGGVWAAEKISDGREAFQEFFGRGHEDTIADQEANRHGRSGKDPNYYRPPGLPDKY
notes: full length murine serum amyloid A isoform 2.1 purified from acute phase plasma
Take B1: the “acyl CoA:cholesterol acyl transferase activity in intact cholesterol-laden macrophages” value in data set [1] (lipoproteins or protein liposomes, tissue culture) is recorded as “marked reduction of acyl CoA:cholesterol acyl transferase activity”. For the same molecule, the “cholesterol release from macrophages pretreated with protein liposomes and injected into un-inflamed mice” value in data set [2] (cholesterol-loaded macrophages pretreated with liposomes, injected intravenously) is “recapitulated the major cholesterol releasing effect”. Further, in data set [2] (non-liposome formulated, in 100 μl PBS, intravenous, 15 μg/mouse peptide or 75 μg/mouse full length protein), the “radiolabeled cholesterol exported in the plasma (FIG. 15)” value is reported as “exceeded the increase observed following administration of the D-27mer peptide”.
